We go through two substances from paper PMC4376737, “An S188V Mutation Alters Substrate Specificity of Non-Stereospecific α-Haloalkanoic Acid Dehalogenase E (DehE)” (PLoS ONE, 2015).

Usually kcat stands for the number of substrate molecules converted per active site and unit of time at saturation. Broadly, the kcat/Km is the turnover number divided by the Michaelis constant.

Common to all, as to settings: 0.1 M Tris-acetate pH 7.6, 30°C, apparent
The test system of data set [1] is C[C@@H](Cl)C(=O)O. The data set is described as follows: purified protein.
The subject of data set [2] is C[C@H](Cl)C(=O)O. The data set is described as follows: purified protein.
Data set [3] deals with T1, C[C@@H](Cl)C(=O)O.
T1 construct: recombinant from pET-22b(+)-dehE in E. coli, purified from cell-free extract; 32 kDa band on SDS-PAGE; monomeric
The experiment in a line: colourimetric chloride release (Bergmann and Sanik), A460. Format: biochemical, Rhizobium sp. RC1. An excerpt: (§1) colourimetric chloride release (Bergmann and Sanik), A460 on DehE (non-stereospecific α-haloalkanoic acid dehalogenase E)

Data set [4] concerns T2, C[C@H](Cl)C(=O)O.
T2 construct: recombinant from pET-22b(+)-dehE in E. coli, purified from cell-free extract; 32 kDa band on SDS-PAGE; monomeric
Described as above. It is filed as biochemical, Rhizobium sp. RC1.
Text: as §1

A further data set deals with T3, O=C(O)CCCl.
T3 construct: recombinant from pET-22b(+)-dehE in E. coli, purified from cell-free extract; 32 kDa band on SDS-PAGE; monomeric
The description is as above. It is filed as biochemical, Rhizobium sp. RC1.
Text: as §1

For “DehE (non-stereospecific α-haloalkanoic acid dehalogenase E) (Rhizobium sp. RC1)”, in the data set with C[C@@H](Cl)C(=O)O [1], the Km result is on record as “(4.8 ± 0.03) x 10^-4 M”, the kcat was found to be 7.76 s⁻¹ and the kcat/Km worked out at 16100 M⁻¹ s⁻¹. For the same substance, in the data set on C[C@H](Cl)C(=O)O [2], the Km result was “(4.3 ± 0.02) x 10^-4 M”, the kcat was determined as 12.3 s⁻¹ and the specificity constant (kcat/Km) came to 28600 M⁻¹ s⁻¹.

Turning to “DehE (non-stereospecific α-haloalkanoic acid dehalogenase E) (Rhizobium sp. RC1; S188V)”, in the data set with C[C@@H](Cl)C(=O)O [3], the Km entry is given as “(4.5 ± 0.01) x 10^-4 M”, the kcat was 9.18 s⁻¹ and the kcat/Km was 20400 M⁻¹ s⁻¹. Moreover, in the data set with C[C@H](Cl)C(=O)O [4], the Km result is “(4.2 ± 0.02) x 10^-4 M”, the kcat came to 13.1 s⁻¹ and the kcat/Km was 31200 M⁻¹ s⁻¹. Further, in the data set on O=C(O)CCCl, the Km result is “(4.9 ± 0.02) x 10^-4 M”, the kcat worked out at 12.6 s⁻¹ and the specificity constant (kcat/Km) was 25600 M⁻¹ s⁻¹.
